Source: paper PMC3950514 (mBio, 2014)

What was measured:
[1] = target: C. neoformans calmodulin (Cam1) (C. neoformans); experiment: pull-down
[2] = target: CnCam1 with human calcineurin (Cryptococcus neoformans, UniProt J9VTH9); experiment: malachite green phosphate release from RII phosphopeptide by human calcineurin; assay type: biochemical

green fluorescent protein (GFP)-tagged C. neoformans calcineurin (Cna1-GFP), sequence (O42773 whole entry): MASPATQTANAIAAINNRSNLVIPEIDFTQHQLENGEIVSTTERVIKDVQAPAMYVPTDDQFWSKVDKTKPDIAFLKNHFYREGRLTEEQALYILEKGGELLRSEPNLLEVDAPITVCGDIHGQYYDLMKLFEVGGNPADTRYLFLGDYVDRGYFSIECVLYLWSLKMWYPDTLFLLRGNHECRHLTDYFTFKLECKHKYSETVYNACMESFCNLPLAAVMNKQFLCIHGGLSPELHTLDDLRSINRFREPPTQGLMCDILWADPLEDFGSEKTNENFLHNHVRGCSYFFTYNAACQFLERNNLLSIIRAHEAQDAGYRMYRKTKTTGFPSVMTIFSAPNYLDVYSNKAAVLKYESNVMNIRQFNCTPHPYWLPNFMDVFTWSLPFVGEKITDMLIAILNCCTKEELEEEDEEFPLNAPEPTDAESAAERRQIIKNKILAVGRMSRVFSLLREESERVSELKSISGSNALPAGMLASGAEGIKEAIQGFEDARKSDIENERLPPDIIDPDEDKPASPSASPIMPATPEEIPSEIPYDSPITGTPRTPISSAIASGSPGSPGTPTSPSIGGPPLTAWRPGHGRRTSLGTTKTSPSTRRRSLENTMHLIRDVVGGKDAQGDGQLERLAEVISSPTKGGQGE

Compound | percent reduction of the bound amount with toremifene (20 µg/ml) against DMSO [1] [%] | IC50 [2] [µM]
green fluorescent protein (GFP)-tagged C. neoformans calcineurin (Cna1-GFP) (from UniProt O42773 1-639) (enzyme) | 45 | 
CN(C)CCOc1ccc(/C(=C(/CCCl)c2ccccc2)c2ccccc2)cc1 [TOR, toremifene] |  | 61.6
